This is an account of results in US20250145724A1 (TWIST BIOSCIENCE, published 2025).

Where a chain is given by its changes, count along the chain named. Names and notes keep the numbering of the source.

Assay [1] concerns the target T1, Adenosine A2A receptor (human) (human, UniProt P29274 1-412).
T1 construct: also called hA2a; hA2a receptor
Briefly: flow cytometry titration 0.05-100 nM IgG, MFI; grey curve and grey number taken as HEK293-A2a cells, black (ND) as parent cells, no legend on the sheet. On the technique in general: Flow cytometry measures light scatter and fluorescence of single cells or particles in a stream.
Procedure: (§1) Flow cytometry data showing binding to HEK293-A2a cells using immunoglobulins from variant libraries were generated using 100 nM IgG and compared to detected binding in parent cells. […] Selected variants were assessed for binding at concentrations titrated from 100 nM. […] Binding curves are plotted with IgG concentration vs. MFI (mean fluorescence intensity). […] Selected variants were assessed for binding at concentrations titrated from 100 nM. […] Binding curves are plotted with IgG concentration vs. MFI (mean fluorescence intensity).

Assay [2] addresses T2, hA2b receptor (human, UniProt P29275 1-332).
T2 construct: whole, on cells; also called adenosine A2B receptor
T2 sequence (looked up): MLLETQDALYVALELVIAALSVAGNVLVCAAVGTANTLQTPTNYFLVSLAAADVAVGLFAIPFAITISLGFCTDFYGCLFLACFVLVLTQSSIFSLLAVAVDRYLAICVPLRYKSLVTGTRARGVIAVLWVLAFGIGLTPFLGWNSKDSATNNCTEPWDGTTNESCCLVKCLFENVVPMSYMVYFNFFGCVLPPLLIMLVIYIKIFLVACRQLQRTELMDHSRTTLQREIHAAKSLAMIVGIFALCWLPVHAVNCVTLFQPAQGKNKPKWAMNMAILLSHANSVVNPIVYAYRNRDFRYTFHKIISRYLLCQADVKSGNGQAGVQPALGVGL
The experiment in a line: cell binding on hA2b HEK293T cells, one bar per antibody; the y axis has no label or unit and the antibody concentration is not given.

For assay [3], the target named is T1, Adenosine A2A receptor (human). The experiment in a line: cell binding titration from 100 nM, RL1-H MFI; panel 'Mouse Immune Library to A2a protein'.
Procedure: (§2) Purified A2a immunoglobulins from Tables 15-18 were assayed for binding in a titration from 100 nM.
Assay [4] has the same target. The experiment in a line: cell binding titration from 100 nM, RL1-H MFI; panel 'Immune Library to A2a protein + ZM241385'.
Procedure: as §2
Assay [5] has the same target. Briefly: cell binding titration from 100 nM, RL1-H MFI; panel 'Synthetic Library to A2a protein + ZM241385'.
Procedure: as §2
Assay [6] has the same target. Briefly: flow cytometry titration 0.05-100 nM IgG, MFI; grey curve taken as HEK293-A2a cells, black as parent cells.
Procedure: as §1
For assay [7] the target is unchanged. Briefly: cell-based or functional assay.
For assay [8] the target is unchanged. The experiment in a line: cell-based or functional assay. This is another data set of the same source.
Assay [9] has the same target. Briefly: flow cytometry titration of IgG from 100 nM on hA2a (RL1-H MFI against IgG in nM); EC50 from the table drawn beside the curves.

T1 sequence (P29274 whole entry): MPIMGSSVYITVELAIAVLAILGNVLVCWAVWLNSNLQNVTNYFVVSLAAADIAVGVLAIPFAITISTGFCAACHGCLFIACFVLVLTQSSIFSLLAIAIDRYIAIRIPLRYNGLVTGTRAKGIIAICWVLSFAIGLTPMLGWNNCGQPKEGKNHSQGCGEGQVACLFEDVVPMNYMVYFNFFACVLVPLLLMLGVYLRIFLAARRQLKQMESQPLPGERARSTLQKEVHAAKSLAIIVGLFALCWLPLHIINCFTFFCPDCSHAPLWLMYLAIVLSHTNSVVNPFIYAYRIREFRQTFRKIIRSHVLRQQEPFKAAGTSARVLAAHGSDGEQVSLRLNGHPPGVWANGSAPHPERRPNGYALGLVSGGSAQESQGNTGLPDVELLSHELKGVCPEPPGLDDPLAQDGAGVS

B1: A2A-9 (antibody, V domains shown)
VH: EVQLQQSGPGLVKPSQSLSLTCSVTGYSITSGYYWNWIRQFPGKKLEWMGYIRYDGSNNYNPSLKNRISITRDTSKNQFFLKLNSVTTDDTATYYCARVHHYYGSSYFDYWGQGTTLTVSS
VL: DIVMTQSQKFMSTSVGDRVSATCKASQNVGSSVAWFQQKPGQSPKALIYSTSYRYSGVPDRFTGSGSGTDFTLTISNVQSEDLAEYFCQQYNSYPLTFGAGTKLEIK
notes: Tested as IgG
For the molecule B1, the EC50 in [1] was found to be 3.83 nM.

B2: A2A-83 (antibody, V domains shown)
VH: EVQRVQSGAELVKPGASVKISCKASGYAFSSYWMNWVKQRPGKGLEWIGQIYPGDGDTNYNGKFEGKATLTADKSSSTAYMQLTSLTSDDSAVYYCARGAYWGQGTTLTVSS
VL: B1 VL with V3Q, T5K, A21V, S31T, S32N, F36Y, T51A, E81G
notes: Tested as IgG
On to B2, for which the binding result in assay [2] is on record as “binds”.

B3: A2A-84 (antibody, V domains shown)
VH: EVQLVESGGGLVKPGGSLRLSCAASGYTFTEYITHWVRQAPGKGLEWVATISGGGSYTNFPDSVKGRFTISRDNAKNTLFLQMTSLRSEDTAMYYCARPNYSGSSPFAYWGQGTLVTVSA
VL: DIVMTQAPAIMSASPGEKVTMTCSASSSVSYMYWYQQKPGSSPRFLIYDTSNLASGVPVRFSGSGSGTSYSLTISSMEAEDAATYYCQQWNSNPLTFSAGTKLEIK
notes: Tested as IgG
Take B3: the binding result in assay [3] is recorded as “binds”.

B4: A2A-78 (antibody, V domains shown)
VH: EVQLLESGGGLVQPGGSLRLSCAASGFTFSAYDIYWVRQPTGKGLEWVSAIGTAGDTYYPGSVKGRFIISRESAKNSVYLQMNSLRAGDTAVYYCAVGYNWVFDLWGQGTLVTVSS
VL: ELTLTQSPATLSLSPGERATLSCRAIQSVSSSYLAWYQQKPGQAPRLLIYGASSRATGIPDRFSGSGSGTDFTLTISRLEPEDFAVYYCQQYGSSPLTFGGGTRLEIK
notes: Tested as IgG
For B4, the “EC50 (read off the curve)” value in assay [4] is ~5 nM.

B5: A2A-26 (antibody, V domains shown)
VH: EVQLLESGGGLVQPGGSLRLSCAASGFTFSTYAMGWVRQAPGKGLEWVSGISGSAGSTYYADSVKGRFTISRDNSKNTLYLQMNSLRAEDTAVYYCAAARGHWRWRLGRRYDYWGQGTLVTVSS
VL: DIQMTQSPSSLSASVGDRVTITCRASQTISRYLNWYQQKPGKAPKLLIYSASTLQSGVPSRFSGSGSGTDFTLTISSLQPEDFATYYCQQSYSTPHTFGGGTKVEIK
notes: Tested as IgG
In the case of B5, the binding result in assay [2] and in assay [5] was “binds” in each case.

B6: A2A-35 (antibody, V domains shown)
VH: B5 VH with L5V, Q13K, A33G, G35S, A55G, Y59N, H102K
VL: B5 VL with T28S, S30G, S50A, T53S, Q55H, S93V, H96W
notes: Tested as IgG
As for B6, the binding result in assay [2] is reported as “binds”.

B7: A2A-27 (antibody, V domains shown)
VH: B5 VH with L5V, Q13K, T31S, G35A, G50A, A55G, Y60F, H102Y, G108W
VL: B5 VL with T28S, S30G, R31S, S50G, T53N, S91G, T94A, H96R, V104L
notes: Tested as IgG; also called A2A-27 (Alloy)
On to B7, for which the binding result in assay [2] and in assay [5] was “binds” in each case.

B8: A2A-19 (antibody, V domains shown)
VH: B5 VH with L5V, Q13K, T31G, G35N, G50T, A55G, G56A, H102Y, W103K
VL: B5 VL with T28S, R31D, S50T, Q89E, H96W, V104L
notes: Tested as IgG
For the molecule B8, the binding result in assay [2] is “binds”.

B9: A2A-15 (antibody, V domains shown)
VH: B5 VH with L5V, Q13K, A33G, G35S, A55G, Y59N, H102K
VL: B5 VL with T28S, S30G, S50A, T53S, Q55H, S93V, H96W, V104L
Consider B9, for which the binding result in [6] was “no binding (tested: 100 nM)”.

B10: A2A-77 (antibody, V domains shown)
VH: QVQLQESGPGLVKPSGTLSLTCAVSGGSISSSNWWSWVRQPPGKGLEWIGEIYHSGNTNYNPSLKSRVTMSVDKSKNQFSLNLHSVTAADTAVYYCAREVVSGMIGTIFDYWGQGTLVTVSS
VL: ELVMTQSPSSLSASVGDRVTITCRASQRISSYLNWYQQKPGKAPKLLIYAASSLQSRVPSRFSGSGSGTDFTLTISSLQPEDFATYYCQQSYSTPLTFGGGTKLETK
notes: Tested as IgG
Consider B10, for which, in assay [7], the “IC50 (antagonistic cAMP assay, RFU ratio 665/615nm against IgG in nM)” value came to 3.52 nM. For the same molecule, the “IC50, T cell activation assay (FIG. 32C)” value in [8] amounted to 5.92 nM. For the same molecule, the concentration for a half-maximal effect (EC50 (read off the curve)) in [4] is ~5 nM. For the same molecule, the concentration for a half-maximal effect (EC50) in assay [9] was 5.76 nM.

B11: A2A-75 (antibody, V domains shown)
VH: B10 VH
VL: B10 VL with S7F, R28S, R57G, S91A, Y92N, T94F, L96I, G100Q, K103R, T106I
notes: Tested as IgG
On to B11, for which the binding result in [2] was “no binding”.

B12: A2A – 79 (antibody, V domains shown)
VH: QVQLQESGGGVVRPGGSLRLSCAASGFTFDDYGMSWVRQVPGKGLEWVSGITWNGDRSGYADSVKGRFTISRDNAKNSLYLQMNSLRAEDTALYYCVRDGLTGIFDYWGQGTLVTVSS
VL: ELTLTQSPATLSVSPGERATLSCRASQSVSSYLAWYQQKPGQAPRLLIYGASSRATGIPDRFSGSGSGTDFTLTISRLEPEDFAVYYCQQYGNSYTFGQGTKVDIK
notes: panel 'Immune Library to A2a protein + ZM241385'
Regarding B12, the binding result in assay [4] is listed as “binds”.

B13: A2A – 80 (antibody, V domains shown)
VH: QVQLVQSGGGLVKPGGSLRLSCAASGFTISTYDIYWVRQATGKGLEWVSAIGTAGDTYYPGSVKGRFTISRENAKNSLYLQMNSLRAGDTAVYYCASGYNWIFDYWGQGTLVTVSS
VL: ELTLTQSPGTLSLSPGERATLSCRASQSVSSNLAWYQQKPGQAPRLLIYGASTRATGTPARFSGSGSGTEFTLTISSLQSEDFAVYYCQQYGSSPPTFGQGTRLEIK
notes: as for B12
In the case of B13, in assay [4], the binding result was “binds”.

B14: A2A-88 (antibody)
heavy chain variable region: EVQLVESGGGLVKPGGSLRLSCAASGFTFRTYGMHWVRQAPGKGLEWVAVISAEGSNKYYADSVKGRFTISRDNSKNTLYLQMNSLRAEDTAVYYCARDGRGSLPRPKGGFIGALSFHWPFGRWLGGSYGTYDSSEDSGGAFDIWGQGTLVTVSS
light chain variable region: QSVLTQPPSVSAAPGQKVTISCSGISSNIGNNYVSWYQQLPGTAPKLLIYDNNKRASGIPDRFSGSKSGTSATLGITGLQTGDEADYYCGTWDTSLSAGVFGGGTKLTVL
In the case of B14, the binding result in assay [2] is reported as “binds”.

As a reminder, the EC50 is the concentration giving half of the maximal effect. One may read the EC50 (read off the curve) as the concentration at which the effect is half-maximal.
